Data as given in patent US12723255B2, “Herbicide tolerance genes and methods of use thereof” (priority 2014, dated 2026).
Residue numbers refer to the chain shown, from its start.

B1: MON-HT7: engineered oxygenase protein, amino acid sequence SEQ ID NO:34 (protein)
chain: MHAALTPLTNKYRFIDVQPLTGVLGAEITGVDLREPLDDSTWNEILDAFHTYQVIYFPGQAITNEQHIAFSRRFGPVDPVPLLKSIEGYPEVQMIRREANESGRVIGDDWHADSTFLDAPPAAVVMRAIEVPEYGGDTGFLSMYSAWETLSPTMQATIEGLNVVHSATKVFGSLYQATNWRFSNTSVKVMDVDAGDRETVHPLVVTHPVTGRRALYCNQVYCQKIQGMTDAESKSLLQFLYEHATKFDFTCRVRWKKDQVLVWDNLCTMHRSVPDYAGKFRYLTRTTVAGDKPSR
B2: MON-HT5: engineered oxygenase protein, amino acid sequence SEQ ID NO:28 (protein)
chain: B1 chain with A112T, S272A
B3: MON-HT6: engineered oxygenase protein, amino acid sequence SEQ ID NO:31 (protein)
chain: MHAALSPLSQKYRFIDVQPLTGVLGAEITGVTLREPLDDNTWNEILDAFHTYQVIYFPGQAITNEQHIAFSRRFGPVDPVPLLKSIEGYPEVQMIRREANESGRVIGDDWHTDSTFLDAPPAAVVMYAREVPPYGGDTGFLSMYSAWDTLSDTMKATIEGLNVVHSATRVFGSLYQAQNRRFSNTSVKVMDVDAGDRETVHPLVVSHPVTGRRALYCNQVYCQRIEGMTDAESKPLLQFLYEHATRFDFTCRVRWKKDQVLVWDNLCTMHRAVPDYAGKFRYLTRTTVAGDKPSR
B4: MON-HT4: engineered oxygenase protein, amino acid sequence SEQ ID NO:25 (protein)
chain: MHAALTPLTNKYRFIDVQPLTGVLGAEITGVDLREPLDDSTWNEILDAFHTYQVIYFPGQAITNEQHIAFSRRFGPVDPVPLLKSIEGYPEVQMIRREANESGRVIGDDWHTDSTFLDAPPAAVVMYAREVPPYGGDTGFLSMYTAWETLSPTMQATIEGLNVVHSATRVFGSLYQAQNRRYSNTSVKVMDVDAGDRETVHPLVVSHPVTGRRALYCNQVYCQRIEGMTDAESKSLLQFLYEHATKFDFTCRVRWKKDQVLVWDNLCTMHRAVPDYAGKFRYLTRTTVAGDKPSR
B5: MON-HT3: engineered oxygenase protein, amino acid sequence SEQ ID NO:22 (protein)
chain: MHAALSPLSQRFERIAVQPLTGVLGAEITGVDLREPLDDSTWNEILDAFHTYQVIYFPGQAITNEQHIAFSRRFGPVDPVPLLKSIEGYPEVQMIRREANESGRVIGDDWHTDSTFLDAPPAAVVMYAKEVPPYGGDTLFASMYTAWETLSPTMQATIEGLNVVHSATRVFGSLYQAQNRRFSNTSVKVMDVDAGDRETVHPLVVTHPETGRKGLYVNQVYCQRIEGMSEKESEPLLSFLFAHATKPEFTCRVRWQEGQVLVWDNLCTQHFAVPDYAGKFRYLTRTTVGGVRPAR

Tested on: F1 hybrid maize plants
Experiment: efficacy field trial for 2,4-D tolerance
Assay type: in vivo
Details: scale 0 to 100; 2 lb ae/acre at VE-V2, V4, V8; with CTP unless label says no CTP
Protocol: (§1) Separate trait efficacy field trials for quizalofop-P and 2,4-D were conducted at two locations cach with F1 hybrid transgenic plants produced by crossing an inbred plant containing maize event MON89034 with an R1 plant containing MON-HT55 (with a CTP), MON-HTI (with or without a CTP), MON-HT2 (with or without a CTP), MON-HT3 (with a CTP), MON-HT4 (with a CTP), MON-HT5 (with a CTP), MON-HT6 (with a CTP), or MON-HT7 (with a CTP). Transgenic F1 hybrid plants containing maize events NK603×MON89034 were used for comparison as a control.
In the efficacy field trial for 2,4-D tolerance, one of four herbicide treatments was used: (1) 2,4-D amine at 2 lb ac/acre (2×) plus 0.25% v/v non-ionic surfactant (NIS) applied to VE to V2 followed by V4 followed by V8; (2) 2,4-D amine at 4 lb ac/acre (4×) plus 0.25% v/v NIS applied to VE to V2 followed by V4 followed by V8; (3) 2,4-D amine at 8 lb ac/acre (8×) plus 0.25% v/v NIS applied to VE to V2 followed by V4 followed by V8 maize; or (4) 2,4-D amine at 16 lb ac/acre (16×) plus 0.25% v/v NIS applied to VE to V2 followed by V4 followed by V8. Plots were visually rated as above. Tables 14 and 15 show the average injury ratings after herbicide application at V4 or V8 growth stage, respectively.

Molecule | average injury rating, V4 Growth Stage, 2x 2,4-D | average injury rating, V8 Growth Stage, 2x 2,4-D
B1 | 1.3 | 2.0
B2 | 2.5 | 3.3
B3 | 0.0 | 6.3
B4 | 0.0 | 2.0
B5 | 3.8 | 5.5

Same assay, conditions: scale 0 to 100; 4 lb ae/acre at VE-V2, V4, V8; with CTP unless label says no CTP

Molecule | average injury rating, V4 Growth Stage, 4x 2,4-D | average injury rating, V8 Growth Stage, 4x 2,4-D
B1 | 1.3 | 2.8
B2 | 2.5 | 4.0
B3 | 2.0 | 4.3
B4 | 1.3 | 8.8
B5 | 6.3 | 5.5

Same assay, conditions: scale 0 to 100; 8 lb ae/acre at VE-V2, V4, V8; with CTP unless label says no CTP

Molecule | average injury rating, V4 Growth Stage, 8x 2,4-D | average injury rating, V8 Growth Stage, 8x 2,4-D
B1 | 5.8 | 9.3
B2 | 7.5 | 10.0
B3 | 5.8 | 11.3
B4 | 8.8 | 12.5
B5 | 8.8 | 11.3

Same assay, conditions: scale 0 to 100; 16 lb ae/acre at VE-V2, V4, V8; with CTP unless label says no CTP

Molecule | average injury rating, V4 Growth Stage, 16x 2,4-D | average injury rating, V8 Growth Stage, 16x 2,4-D
B1 | 12.5 | 20.0
B2 | 17.5 | 21.3
B3 | 8.8 | 12.5
B4 | 18.8 | 21.3
B5 | 11.3 | 13.8

Tested on: F1 hybrid maize plants
Experiment: efficacy field trial for quizalofop-P tolerance and clethodim sensitivity
Assay type: in vivo
Details: scale 0 to 100; 0.32 lb ai/acre at VE-V2, V4, V8; with CTP unless label says no CTP
Protocol: as §1
In the efficacy field trial for quizalofop-P tolerance and clethodim sensitivity, one of four herbicide treatments was used: (1) quizalofop-P (Assure II) at 0.32 lb ai/acre (4×) plus 0.25% v/v non-ionic surfactant (NIS) applied at VE-V2 growth stage followed by the same at V4 growth stage followed by the same at V8 growth stage; (2) quizalofop-P at 0.64 lb ai/acre (8×) plus 0.25% v/v NIS applied at VE to V2 growth stage followed by the same at V4 growth stage followed by the same at V8 growth stage; (3) quizalofop-P at 1.28 lb ai/acre (16×) plus 0.25% v/v NIS applied at VE to V2 growth stage followed by the same at V4 growth stage followed by the same at V8growth stage; or (4) clethodim at 0.25 lb ai/acre (1×) plus 0.25% v/v NIS applied at V8 growth stage. Plots were visually rated 10-14 days after application for crop injury on a scale of 0 to 100with “0” being none and “100” being complete crop destruction. Tables 14 and 15 show the average injury ratings after herbicide application at V4 or V8 growth stage, respectively.

Molecule | average injury rating, V4 Growth Stage, 4x Quizalofop | average injury rating, V8 Growth Stage, 4x Quizalofop
B1 | 0.8 | 1.5
B2 | 1.3 | 2.5
B3 | 0.0 | 1.3
B4 | 2.8 | 3.3
B5 | 0.8 | 2.5

Same assay, conditions: scale 0 to 100; 0.64 lb ai/acre at VE-V2, V4, V8; with CTP unless label says no CTP

Molecule | average injury rating, V4 Growth Stage, 8x Quizalofop | average injury rating, V8 Growth Stage, 8x Quizalofop
B1 | 1.3 | 0.8
B2 | 4.5 | 0.0
B3 | 1.3 | 2.0
B4 | 3.3 | 3.3
B5 | 0.0 | 2.0

Same assay, conditions: scale 0 to 100; 1.28 lb ai/acre at VE-V2, V4, V8; with CTP unless label says no CTP

Molecule | average injury rating, V4 Growth Stage, 16x Quizalofop | average injury rating, V8 Growth Stage, 16x Quizalofop
B1 | 3.3 | 5.5
B2 | 4.5 | 8.0
B3 | 2.8 | 5.0
B4 | 13.8 | 8.0
B5 | 4.3 | 6.0

Same assay, conditions: scale 0 to 100; clethodim 0.25 lb ai/acre at V8; volunteer control

Molecule | average injury rating, V8 Growth Stage, 1x Clethodim
B1 | 93.3
B2 | 92.0
B3 | 93.3
B4 | 94.5
B5 | 94.5
